According to PMC6972956:

Tests used:
[1] = biological target: recombinant integrin αIIbβ3 stably expressed on K562 cells (UniProt P08514); experiment: flow cytometry on cells; mAb PT-25-activated αIIbβ3-K562 cells incubated 30 min at RT with serially diluted unlabeled Hr10, hFN10 or eptifibatide in the presence of 0.5 µM Alexa647-conjugated FB; buffer A
[2] = biological target: recombinant integrin αVβ3 stably expressed on K562 cells (UniProt P06756); experiment: flow cytometry on cells; displacement of Alexa647-labeled hFN10 from αVβ3-K562 cells by unlabeled hFN10 or Hr10; buffer A (1 mM MgCl2, 1 mM CaCl2), RT
Chain of UniProt P06756 (P06756 31-1048, chain 1 of 2): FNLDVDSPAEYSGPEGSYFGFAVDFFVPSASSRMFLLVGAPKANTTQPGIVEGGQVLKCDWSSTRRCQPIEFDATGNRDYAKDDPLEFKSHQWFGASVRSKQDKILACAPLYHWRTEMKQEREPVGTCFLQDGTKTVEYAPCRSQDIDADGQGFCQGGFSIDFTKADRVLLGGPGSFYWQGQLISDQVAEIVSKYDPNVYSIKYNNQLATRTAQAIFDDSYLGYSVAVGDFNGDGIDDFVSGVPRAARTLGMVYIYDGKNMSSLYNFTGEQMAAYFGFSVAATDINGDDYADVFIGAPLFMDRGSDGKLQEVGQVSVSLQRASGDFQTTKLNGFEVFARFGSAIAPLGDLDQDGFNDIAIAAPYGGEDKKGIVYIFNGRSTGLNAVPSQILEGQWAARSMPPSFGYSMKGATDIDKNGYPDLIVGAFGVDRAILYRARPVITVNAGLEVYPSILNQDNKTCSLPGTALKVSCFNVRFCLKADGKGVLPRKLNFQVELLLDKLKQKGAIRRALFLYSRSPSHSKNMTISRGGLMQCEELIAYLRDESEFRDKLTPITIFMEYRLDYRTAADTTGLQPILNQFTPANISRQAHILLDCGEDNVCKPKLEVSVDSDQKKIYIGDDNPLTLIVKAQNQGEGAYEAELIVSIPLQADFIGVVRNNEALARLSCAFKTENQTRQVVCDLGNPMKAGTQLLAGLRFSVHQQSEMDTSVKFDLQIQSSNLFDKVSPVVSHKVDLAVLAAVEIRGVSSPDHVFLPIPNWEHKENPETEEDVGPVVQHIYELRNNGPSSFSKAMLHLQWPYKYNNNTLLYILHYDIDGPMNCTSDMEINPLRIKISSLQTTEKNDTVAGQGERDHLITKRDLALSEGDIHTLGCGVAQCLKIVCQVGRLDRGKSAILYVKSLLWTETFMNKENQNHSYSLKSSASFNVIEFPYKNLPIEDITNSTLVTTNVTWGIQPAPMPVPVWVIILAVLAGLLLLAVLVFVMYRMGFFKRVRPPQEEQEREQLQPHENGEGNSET
Chain of UniProt P06756 (P05106 27-788, chain 2 of 2, further chain): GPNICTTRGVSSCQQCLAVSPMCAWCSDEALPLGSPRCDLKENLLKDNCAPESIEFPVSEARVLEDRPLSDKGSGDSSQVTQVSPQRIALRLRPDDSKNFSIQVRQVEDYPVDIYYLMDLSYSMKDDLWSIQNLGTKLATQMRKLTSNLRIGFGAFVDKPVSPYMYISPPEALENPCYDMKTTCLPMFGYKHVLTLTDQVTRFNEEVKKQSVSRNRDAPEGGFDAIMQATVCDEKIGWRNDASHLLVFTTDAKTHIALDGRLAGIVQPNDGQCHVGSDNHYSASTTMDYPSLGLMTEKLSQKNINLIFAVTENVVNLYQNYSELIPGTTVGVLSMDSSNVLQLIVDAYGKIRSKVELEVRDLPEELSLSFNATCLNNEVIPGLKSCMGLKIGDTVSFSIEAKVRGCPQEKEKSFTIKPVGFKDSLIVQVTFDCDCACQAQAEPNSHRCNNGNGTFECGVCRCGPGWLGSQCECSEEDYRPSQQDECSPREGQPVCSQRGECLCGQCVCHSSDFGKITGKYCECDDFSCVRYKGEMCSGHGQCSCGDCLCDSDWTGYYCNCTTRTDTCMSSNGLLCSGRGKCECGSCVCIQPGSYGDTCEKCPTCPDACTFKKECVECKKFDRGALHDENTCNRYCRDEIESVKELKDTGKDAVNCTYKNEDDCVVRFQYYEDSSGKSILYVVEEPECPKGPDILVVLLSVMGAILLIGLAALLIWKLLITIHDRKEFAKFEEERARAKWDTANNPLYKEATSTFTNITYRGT

| IC50 [1] [nM] | IC50 [2] [nM] | Substance |
| --- | --- | --- |
| 73.2 | – | eptifibatide (peptide) |
| 474 | 3.6 | hFN10 (from UniProt P02751 1539-1631) (designed binder) |
